From the nanobody polyreactivity screen of Harvey et al. (2022)

Experiment: yeast display, Sf9 membrane polyspecificity reagent, FACS + sequencing; frameworks hold sequencing errors
Summary of the method: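 Genes from sorted yeast were amplified by colony PCR, read by MiSeq 2 × 250 sequencing and filtered on CDR length. These cells carried a synthetic nanobody library in Saccharomyces cerevisiae BJ5465 and were sorted by FACS into low and high (top ~1%) gates on anti-HA and streptavidin fluorescence. Polyreactivity is labelled according to the gate of origin.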

## QVQLVESGGGLVQAGGSLRLSCAASGSSFLSNTMGWYRQAPGKECELVAAITSGGDTSYADSVKGRFTISRDNAKNTVYLHMKILKADDTAVYYCNVDTSATCYSSEYDYWGQGTQVSVSS
  polyreactivity (PSR sort gate): low polyreactivity

## QVQLVESGGGLVQAGGSLRLSCAASGNTYGYNAMGWYRQAPGKERELVASITWSGGSTYYADSVKGRFTISRDNAKNTVYLQMNSLKPEDTAVYYCNADVRYGRDHWGQGTQVTVSS
  polyreactivity (PSR sort gate): low polyreactivity

## QVHLVESAGGLVQAGGSLRLSCAASGRIFTPYAMGWYRQAPGKERELVAVIRDGSTYYADSVKGRFTISRDNAKNTVYLQMNSLKPEDSAVYYCRYDIWVWWSGAYDYWGQGTQVTVSS
  polyreactivity (PSR sort gate): low polyreactivity

## QVKLVESGGGLVQAGGSLRLSCAASGSIFTYYAMGWYRQAPGKERELVADIRWSGGSTYYADSVKGRFTISRDNAKNTVYLQMNSLKPEDTAVYYCNARYYSYWPIYNFDYWGQGTQVTVSS
  polyreactivity (PSR sort gate): low polyreactivity

## QVQLVESGGGLVQAGGSLRLSCAASGSTFWAYAMGWYRQAPGKERELVAAITTGGGRTFYADSVKGRFTISRDNAKNTVYLQMNSLKPEDTAVYYCAAVSQSYRMYYWGEGTQVTVSS
  polyreactivity (PSR sort gate): low polyreactivity

## QVQLVESGGGLVQAGGSLRLSCAASGRTFTQNAMGWYRQAPGKERELVAAISSGGRTYYADSVKGRFTISRDNAKNTVYLQMNSLKPEDTAVYYCNAGGGRRMYWGLGTQVTVSS
  polyreactivity (PSR sort gate): high polyreactivity

## QVQLVESGGGLVQEGGSLRLSCAASGFTFRYYTMGWYRQATGKERELVATITWSGGGTYYADSVKGRFTISRDNAKNTVYLQRISLKPVDSAVYYCTAGLFYKAQYGYWGKGTQVTVSS
  polyreactivity (PSR sort gate): high polyreactivity

## QVQLVESGGGLVQAGGSLRLSCADSGRTFRFNTRGWYRQAPGKEWVLVASISSSGGRTYYADSVKGRFTISRDNAKNTLYLQMHSLKPEDTAVYYCAAAAGWGARTSTYCGYDYWGQGTQVTVST
  polyreactivity (PSR sort gate): high polyreactivity

## QVQLVESGGGLVQAGGSLRLSCAASGLTFYYYAMGWYRQAPGKERELVARISSGTSTYYADSVKGRFTISRDNAKNTVYLQMNCMKPEDTAVYYCTARRKLGSTHGPWGGLEYWGEGTQVTVSS
  polyreactivity (PSR sort gate): low polyreactivity

## QVQLVESGGGLVQAGGSLRLSCAASGRIFSRNAMGWYRQAPGKERELVAAITRRGGSTYYADSVKGRFTISRDNAKNTVYLQMNSLKPEDTAVYYCATVTYSGSVDYDYWGQGTQVTVSS
  polyreactivity (PSR sort gate): high polyreactivity

## QVQLVESGGGLVQAGGSLRLSCAASGNTFGDNAMGWYRQAPGKERELVAAISTGGNTYYADSVKGRFTISRDNAKNTVYLQMNSLKPEDTAVYYCNAKWIPDTLFGIHETEGDYWGQGTQVTVSS
  polyreactivity (PSR sort gate): low polyreactivity

## QVQLVESGGGLVQAGGSLRLSCAASGFIFDPYAMGWYRQAPGKERELVAAISDGGSTNYADSVKGRFTISRDNAKNTVYLQMNSLKPEDTAVYYCAVEYWYVWVTFDYWGQGTQVTVSS
  polyreactivity (PSR sort gate): low polyreactivity

## QVQHGESGGGLVQAGSSLRLSCAASGSTIVNNAMGWYRQAPGKERELVAANTSGGSTNYADSVKGRFTISRDNAKNTVYLQMNSLKPEDTAVYYSNADGDSWYTGIPAVSHGYWGQGTQVTVSS
  polyreactivity (PSR sort gate): low polyreactivity

## QVQLVESGGGLVQAGGSLRLSCAASGIIFRWYGMGWYRQAPGKERELVATITSGGRTNYADSVKGRFTISRDNAKNTGYLQMHSLKPEDTAVYYCAAARLFAMDYWGQGTQVTVSS
  polyreactivity (PSR sort gate): low polyreactivity

## QVQLVESGGGLVQAGGSLRLSCAASGRTFVVNAMGWYRQAPGKEREFVAAISYRGDSTYYADSVKGRFTISRDNAKNTVYLQMNSLKPEDTAVYYCAAQYRYGRYTRDYWGQGTQVTVSS
  polyreactivity (PSR sort gate): high polyreactivity

## QVHLVESGGGLDQAGGSLRLICAASGSIFDYYAMGWYRQAPGKERELVAAIDNPDSTNYADSVKGRFTLSRDNAKNTVYLQMNSLKPEDTAVYYCAASSRTVWYPGVGYYYWGQGTQVTVSS
  polyreactivity (PSR sort gate): low polyreactivity

## QVQLVESGGGLVQAGGSLRLSCAASGIIFRGYAMGWYRQAPGKERELVAAITYSGDSTYYADSVKGRFTSSRDNAKNTVYLQMNSLKPEESAVYYCNADVVDGGLAYDYWGQGTQVSVSS
  polyreactivity (PSR sort gate): low polyreactivity

## QVQLVESGGGLVQAGGSLRLSCAASGSILRVNAMGWYRQAPGKEREVVAAISSGGITNYADSVKGALHNFTRQCEEYRLFTDEQPETGTYRGQFCARTYRNPASAGSLVVRYPYDYWGQGTQVTVTS
  polyreactivity (PSR sort gate): low polyreactivity

## QVQLVESGGGLVQAGGSLRLSCAASGGTFYRSAMGWYRQAPGKERELVAAISTGSSTYYADSVKGRFTISRDNAKNTVYLQINSQKPEDTAVNYCAARYWERYRSFNYWGQGTQVTVSS
  polyreactivity (PSR sort gate): high polyreactivity

## QVQLVESGGGLVQAGGSLRLSCAASGRIFSRNDMGWYRQSPGKERELVAAITRIGGSTYYADSVKGRITISRDNAKNTVYLQMNSLKPEDNAVYYCAARGSGKYGWGQGSQVTVSS
  polyreactivity (PSR sort gate): high polyreactivity

## QVQLVESGGGLVQAGGSLRLSCAASGSTFYRYAMGWYRQAPGKERELVATISKRGGSTYYADSVKGRFTISRDNAKYTVYLQMNSLKPEDTAVYYCNVRLEYRYYRGDYWGQGTQVTVSS
  polyreactivity (PSR sort gate): high polyreactivity

## QVQLVESGGGLVQAGGSLRLSCAASGIIFGGYTMGWSRQAPGKERELVAAISWSGVGTYYADSVKGRFTISRDNAKNTVYLQMNSLKPEDTAVYYCAAWAYYSDDDEYWGQGTQVTVSS
  polyreactivity (PSR sort gate): high polyreactivity

## QVQLVESGGGLVQAGGSLRLSCSASGFNFRRYAMGLYRQAPGKERELVAVITSGGSTYYADSVKGRFTISRDNAKNTVYLQMNSLKTEDTAVYYCAARYYWYSQEYVLSSWWGDYCGQGTQVTVSS
  polyreactivity (PSR sort gate): high polyreactivity

## QVQLVESGGGLVQAGGSLRLSCAASGFIFIQNDMGWYRQAPGKERAFFASISKDGGRTYYADSVKGRFTISRDNAKNTVYLQMNSLKPEDTAVYYCNTYPRGNWGNFVEQDYDYWGQGTQVTVSS
  polyreactivity (PSR sort gate): low polyreactivity

## QVQLVESGGGLVQAGGSLRLSCAASGSTNGRNAIGWSRQAPRKERELVAAISSGGSTSYADSVKVRFTISRDNAKYTDYLQMNSLKPVDTAVYYCAAQSVGSQYDYWGQGTQVTVSS
  polyreactivity (PSR sort gate): low polyreactivity

## QVQLVESGGGLVQAGGSLRLSCAASGSIFKINAMGWYRQAPGKEREWVAAITRSGGSTYYADSVKGRFTISLDNAKNTVYLQMNSLKPEDTAVYYCNASTSRSTSLSSRFYYWGQGTQVTVSS
  polyreactivity (PSR sort gate): high polyreactivity

## QVQLVESGGGLVQAGGSLRLSCDASGRILHYYAMGWYRQAPGKERELVATISISGGNTRYADSVKGRFTISRDNAKNTVYLQMNSLKPEDTAVYYCDARPYAGFDNWGQGTQVTVSS
  polyreactivity (PSR sort gate): high polyreactivity

## QVQLVESGGGLVQAGGSLRLSCAASGFILVGYAMGWYRKAPGKERELVAAISSGDSTNYADSVKGRFTISRDNAKNSVYLQMNSLKPEDTAVYYCAARFIFWVYDYDYWGQGTQVTLSS
  polyreactivity (PSR sort gate): low polyreactivity

## QVQLVESGGWLVQAGGSLRLSCDASGITFYRNAVGWYRPAPGKERELVADITVSGGSTYYADSVKGRFTISRDNAKNTVYLQMNSLKPEDTAVYYCNAGLYQYDVWAYYIRYDYWGQGTQVTVSS
  polyreactivity (PSR sort gate): low polyreactivity

## QVQLVESGGGLVQEGGSLRLSCAASGRTFYTNAMGWYRPAPGKERELVAVISRGGTTFYADSVKGRFTISRDNAKNTVYLQMNSLKPEDTAVYYCAKQRPSGDSSSQMGSWGQGTQVTVSS
  polyreactivity (PSR sort gate): low polyreactivity

## QVQLVESGGGLVQAGGSLRLSCAASGSTFARNVMGWYRHAPGKERELVAAITRSGGSTYYADSVKGRFTISRDNAKNTVYFQMNSLKPEDTAVYYCNRDFRGLAYSDRYDYWGQGTQVTVSS
  polyreactivity (PSR sort gate): low polyreactivity

## QVQLVESGGGLVQAGGSLRLSCAASGRIFYWYGMGWYRQAPGKERELVAGITYSASRTYYADSVKGRFTISRDNVKNTVYLQMNCMKPEVTAVYYCAAGRYHRDDGYDYWGQGTQVTVSS
  polyreactivity (PSR sort gate): low polyreactivity
